For experiment [1], the target named is T1, mouse 5-HT3A receptor W347A, full length (mouse) (UniProt P23979).
T1 sequence: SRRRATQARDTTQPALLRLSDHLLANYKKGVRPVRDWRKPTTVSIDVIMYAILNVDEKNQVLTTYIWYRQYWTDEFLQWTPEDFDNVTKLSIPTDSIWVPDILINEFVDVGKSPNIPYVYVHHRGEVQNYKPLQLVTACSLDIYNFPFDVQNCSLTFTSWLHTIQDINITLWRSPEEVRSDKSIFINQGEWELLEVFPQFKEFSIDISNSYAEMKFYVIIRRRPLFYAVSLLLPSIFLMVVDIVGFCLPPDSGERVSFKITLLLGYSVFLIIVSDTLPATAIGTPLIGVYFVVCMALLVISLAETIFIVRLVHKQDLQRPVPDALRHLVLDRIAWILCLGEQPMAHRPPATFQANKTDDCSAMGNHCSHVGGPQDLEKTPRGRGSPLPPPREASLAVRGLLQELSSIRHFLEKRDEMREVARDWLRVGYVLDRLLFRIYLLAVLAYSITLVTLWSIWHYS

The target of experiment [2] is T2, mouse 5-HT3A receptor W347A, R349A, L353A, full length (mouse) (UniProt P23979).
T2 sequence: T1 sequence with R326A, L330A

Experiment [3] addresses T3, mouse 5-HT3A receptor R349A, full length (mouse) (UniProt P23979).
T3 sequence: T1 sequence with A324W, R326A

The target in experiment [4] is T4, mouse 5-HT3A receptor, wild type, full length (mouse) (UniProt P23979).
T4 sequence: T1 sequence with A324W

The target of experiment [5] is T5, mouse 5-HT3A receptor L353A, full length (mouse) (UniProt P23979).
T5 sequence: T1 sequence with A324W, L330A

Experiment [6] addresses T6, mouse 5-HT3A receptor W447A, R449A, L454A, full length (mouse) (UniProt P23979).
T6 sequence: T1 sequence with A324W, W424A, R426A, L431A

Substitutions are numbered along the chain they refer to.

B1: resistance to inhibitors of choline esterase (RIC-3) protein (natural protein)
chain: SRGKRQEPPPTPEGKLGRFPPMMHHHQAPSDGQTPGARFQRSHLAEAFAKAKGSGGGAGGGGSGRGLMGQIIPIYGFGIFLYILYILFKLSKGKTTAEDGKCYTAMPGNTHRKITSFELAQLQEKLKETEAAMEKLINRVGPNGESRAQTVTSDQEKRLLHQLREITRVMKEGKFIDRFSPEKEAEEAPYMEDWEGYPEETYPIYDLSDCIKRRQETILVDYPDPKELSAEEIAERMGMIEEEESDHLGWESLPTDPRAQEDNSVTSCDPKPETCSCCFHEDEDPAVLAENAGFSADSYPEQEETTKEEWSQDFKDEGLGISTDKAYTGSMLRKRNPQGLE
In the case of B1, the remaining current (%): peak 5-HT-evoked current of 5-HT3A channels co-expressed with RIC-3 divided by that of the channels alone; TEVC in Xenopus oocytes, 10 uM serotonin worked out at 43.4% in experiment [1]; 40.6% in experiment [2]; 33.9% in experiment [3]; 15.6% in experiment [4]; 50% in experiment [5]; 36.9% in experiment [6].

(Values after paper PMC10083716.)
